The target of this assay is Pyruvate kinase M2 isoform (human (endogenous in AGS and HGC27)) (UniProt P14618). Description: cross-linking.

Data on one substance can be found in publication PMC12764052.

Pyruvate kinase M2 isoform, P14618 1-531 (natural protein; other documents disagree on this pair), sequence (P14618 whole entry, canonical isoform): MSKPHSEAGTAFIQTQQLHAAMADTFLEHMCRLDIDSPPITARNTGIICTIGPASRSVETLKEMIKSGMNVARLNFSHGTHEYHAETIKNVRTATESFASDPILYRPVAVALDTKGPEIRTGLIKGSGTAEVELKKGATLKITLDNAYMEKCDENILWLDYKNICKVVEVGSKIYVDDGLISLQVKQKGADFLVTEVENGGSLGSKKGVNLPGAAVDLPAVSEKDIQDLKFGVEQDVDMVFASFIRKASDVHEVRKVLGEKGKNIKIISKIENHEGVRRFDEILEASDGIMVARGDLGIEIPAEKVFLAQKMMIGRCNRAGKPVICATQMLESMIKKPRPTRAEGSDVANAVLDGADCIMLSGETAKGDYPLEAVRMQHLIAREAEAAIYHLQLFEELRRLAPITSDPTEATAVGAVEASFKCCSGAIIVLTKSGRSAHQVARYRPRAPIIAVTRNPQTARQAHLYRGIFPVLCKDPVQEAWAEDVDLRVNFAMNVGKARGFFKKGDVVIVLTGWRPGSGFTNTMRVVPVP

By stoichiometry N is commonly meant the number of molecules, sites or subunits per partner or assembly. On to “Pyruvate kinase M2 isoform, P14618 1-531 (natural protein; other documents disagree on this pair)”, for which the stoichiometry N came out at 2.
